# Experimental data taken from the supplement of paper PMC7125110.
# ± gives the standard error. This sample holds only a part of the variants without activity.
# B1: glmS ribozyme (parent)
# chain: AUAAAAGCGCCAGAACUACAGAAAUGUAGUUGACGAGGAGGAGGUUUAUCGAAUUUUCGGCGGAUGCCUCCAAA
# Variants of: B1
# Assay: self-cleavage kobs at 10000 uM GlcN6P; higher = faster cleavage; RNA array
# Details: with glucosamine-6-phosphate
# Outline: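 Tiles of sequenced MiSeq chips were imaged over ~14 h at 37 °C. On them, barcoded ribozyme variants had been transcribed in situ by E. coli RNA polymerase and were tracked via a hybridised Cy3 probe while glucosamine-6-phosphate (40 μM to 10 mM) in HEPES/KCl/Mg(OAc)2 buffer flowed in. Per-tile medians, normalised to baseline and to non-cleaving reference variants, were fit to one- or two-exponential decays for kobs, and weighted Michaelis–Menten fits gave kcat and KM.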
row,Variant,self-cleavage kobs at 10000 uM GlcN6P
1,AUAAAAGCGCCGGAACUACAGAAAUGUAGGUGACGAGGAGGAGGUUUAUCGAAUGUUCGGCGGAUGCCUCCAAA [A12G U30G U55G],5.43e-05 ± 1.3e-05 s⁻¹
2,AUAAAAGCGCCAAAACUACAGUAAUGUAGUUGACGAGGAGGAGGGUUAUCGAAUUUUCGGCGGAUGCCUCCAAA [G13A A22U U45G],7.33e-05 ± 1e-05 s⁻¹
3,AUAAAAGCGCCAGAACUACAGAAAUGUAGUUGACGAGGAUGAGGAUUAUCGAAUUUUCGGCGGAUGCCUGCAAA [G40U U45A C70G],0.000163 ± 3.4e-05 s⁻¹
4,AUAAAAGCGCCAGAGCUACAGAAAUGUAGUUGACGAGGAGGUGGUUUAUCGAAUUUUCGGCGGAUGCCACCAAA [A15G A42U U69A],0.00624 ± 0.0018 s⁻¹
5,AUAAAAGCGCCCGAACUACAGAAAUGUAGUUGACGAGGAGGAGGUUUAUCAAAUUUUCUGCGGAUUCCUCCAAA [A12C G51A G59U G66U],< 1e-05 s⁻¹
6,AUAAAAGCGCCAGAACUACAGAAAUGUAGUUGACGAGGAGGAGGUUUAUCGAACUUUGGGCGCAUGCCUCCAAA [U54C C58G G63C],< 1e-05 s⁻¹
7,AUAAAAGCGCUAGAUCUACAGAAAUGUAGUUGACGAGGAGGUGGUUUAUCGAAUUUUCGGCGGAUGCCUCCAAA [C11U A15U A42U],< 1e-05 s⁻¹
8,AUAAAAGCGCCAGAACUACAGAAAUGUAGUUGACGAGGAGGAGGUUAAUCGAUUUUUCGGCGGAUGCGUCCAAA [U47A A53U C68G],4.16e-05 ± 1.7e-05 s⁻¹
9,AUAAAAGCGCCCGAACUACAGAAAUGUAAUUGACGGGGAGGAGGUUUAUCGAAUUUUCGGCGGAUGCCUCCAAA [A12C G29A A36G],< 1e-05 s⁻¹
10,AUAAAAACGCCAGAACUACAGAAAUGUAGUUGGCGAGGAGGAGGUUUAUCGAAUUUUCGGCGGAUGCUUGCAAA [G7A A33G C68U C70G],5.57e-05 ± 2e-05 s⁻¹
11,AUAAAAGCUCCAGAACUACAGAAAUGUAGAUGACGAGGAGGAGGUUUAUCGAAUUUUCGGCGGAUGCCUCUAAA [G9U U30A C71U],< 1e-05 s⁻¹
12,AUAAAAGUGCCAGAAAUACAGAAAUGUAGUUGACGAGGCGGCGGUUUAUCGAAUUUUCCGCGGAUGACUUCAAA [C8U C16A A39C A42C G59C C67A C70U],< 1e-05 s⁻¹
13,AUAAAAACGCCCGAACUACAGAAAUGUAGUUGACGAGGAGGAGGUUUAUCUAAUUUUCGGCGGAUGCCUCCAAA [G7A A12C G51U],< 1e-05 s⁻¹
14,AUAAAAGCGCCUGUACUACAGAAAUGUAAUUGACGAGGAGGAGGUUUAUCGAAUUUUCGGCGGAUGCCUCCAAA [A12U A14U G29A],0.00021 ± 4.5e-05 s⁻¹
15,AUAAAAGCGCCAGAACUACAGAAAUGUAAUUGACGAGGAUGAGGUUUAUCGAAUUUUCGGCGGAUGCGUCCAAA [G29A G40U C68G],< 1e-05 s⁻¹
16,AUAAAAACGCCAGAACUACAGAAAUGUAGUUGACGAGGAGGAGGUUUAUCGAAUUUUCGGCGGGUGUCUGCAAA [G7A A64G C67U C70G],< 1e-05 s⁻¹
17,AUAAAAGCGCCAGUACUACAGAAAUGUAGUUGACGAGGAGGAGGUUUAUCAAAUUUCCGGCGGAUGCCUCCAAA [A14U G51A U57C],< 1e-05 s⁻¹
18,AUAAAAGCGCUGGAACUACAGAAAUGUAGUUGACGAGGAGGAGGUUUAUUGAAUUUUCGGCGGAUGCCUCCAAA [C11U A12G C50U],< 1e-05 s⁻¹
19,AUAAAAGCGCCAGAACUACAGAAAUGUAGUUGACGAGGUGGAGGUUUAGCGAAGUUUCGGCGGAUGCCUCCAAA [A39U U49G U54G],0.00053 ± 0.00012 s⁻¹

row,Variant,self-cleavage kobs at 10000 uM GlcN6P
1,AUAAAAGCGCCAGAACUACAGAAAUGUAGUCGACGAGGAGGAGGUUUAUCGAAUUUUUGGCGCAUGCCUCCAAA [U31C C58U G63C],< 1e-05 s⁻¹
2,AUAAAAGCGCCAGAACUACAGAAAUGUAGUUGACGAAGAGGAGGUUUAUCGGAUUUUCGGCGGAUGUCUCCAAA [G37A A52G C67U],5.39e-05 ± 2.2e-05 s⁻¹
3,AUAAAAGCGCCAGAACUACAGAAAUGUAGUUGACGAGGCGGUGGUGUAUCGAAUUUUCGGCGGAUGCCUCCAAA [A39C A42U U46G],3.93e-05 ± 1.5e-05 s⁻¹
4,AUAAAAGCGCCAGAAUUACAGAAAUGUAGUUGACCAGGAGGAGGUUUAUCGAAUUUUAGGCGGAUGCCUCCAAA [C16U G35C C58A],< 1e-05 s⁻¹
5,AUAAAAGCGCCAGUCCUACAGAAAUGUAGUUAACGAGGAGGUGGUUUAUCGAUUUUUCGGCGGAUGCCUUCAAA [A14U A15C G32A A42U A53U C70U],< 1e-05 s⁻¹
6,AUAAAAGCGCCAGAACUACAGAAAUGUAGUUGACGAGGAGGAGGUUUAUCGAAAUUUCGUCGGUUGCCUCCAAA [U54A G60U A64U],< 1e-05 s⁻¹
7,AUAAAAGCGCCAGAACUACAGAAAUGUAGUUGACGAGGAGGAGGUUUAUCGUAUUUUCGGCGGAUUACUCCAAA [A52U G66U C67A],8.48e-05 ± 2.8e-05 s⁻¹
8,AUAAAAGCGCCAGAACUACAGAAAUGUAGUUGACGAGGUGGAGGUUAAUCGAAUUUUCGGCGGAUGUCUCCAAA [A39U U47A C67U],0.00456 ± 0.0007 s⁻¹
9,AUAAAAGCGCCAGAACUACAGAAAUGUAGUUGACGAUGAGGAUGUUUAUCGAAUUUUCAGCGGAUGCCUCCAAA [G37U G43U G59A],< 1e-05 s⁻¹
10,AUAAAAGCGCCGGAACUACAGAAAUGUAGAUGAUGAGGAGGAGGGUUAUCGAAUUUUCGGCGGAUGACUCCAAA [A12G U30A C34U U45G C67A],< 1e-05 s⁻¹
11,AUAAAAGAGCCAGAACUACAGAAAUGUAGUUGACGUGGAGGAGGUUUAUCGAAUUUUCGGGGGAUACCUCCAAA [C8A A36U C61G G66A],< 1e-05 s⁻¹
12,AUAAAAGCGUCAGAACUACAGAAAUGUAGUUGACGAGGAGGAGGUUUAUCGAAUUUUUCGCGGAUGCCUCCAAA [C10U C58U G59C],< 1e-05 s⁻¹
13,AUAAAAGCGCCAGAACUACAGAAAUGUAGUUGACGAGGAGGAAGUUUAUCGAAUUUUCCGCGGAUGGCUCCAAA [G43A G59C C67G],< 1e-05 s⁻¹
14,AUAAAAGCGCGAGAUCUACAGAAAUGUAGUUGACGAGGAGGAGGUUUAUAUAAUUUUCGGCGGAUGCCUACAAA [C11G A15U C50A G51U C70A],4.33e-05 ± 1.2e-05 s⁻¹
15,AUAAAAGCGCCAGAAUUACAGAAAUGUAGUUGACGAGGAGGAGGUCUAUCGAAUUUUGGGGGGAUGCCUCCAAA [C16U U46C C58G C61G],5.92e-05 ± 2.1e-05 s⁻¹
16,AUAAAAGCGCCUGAACUACAGAAAUGUAGUUGACGAGGAGGAGCUUUAUCGAGUUUUCGGCGGAUGCCUCCAAA [A12U G44C A53G],0.000245 ± 4.7e-05 s⁻¹
17,AUAAAAGCGCCAGAACUACAGAAAUGUAGGUGACGAGGUGGAGGUUUAUCGAAUUUUCGGCGGAUGCCUACAAA [U30G A39U C70A],7.17e-05 ± 1.8e-05 s⁻¹
18,AUAAAAGCGCCAGAACUACAGAAAUGUAGUUGAUGCGGAGGAGGUUUAUCGAAUUUUCGGCGGAUGCCUCCAAA [C34U A36C],< 1e-05 s⁻¹
